This is an account of results in publication PMC7382286 (2020).

To fix the notation:
T1: biotinylated recombinant human Arginase 2 (human, UniProt P78540 23-354, biotin (biotinylated; site not stated))
T1 chain: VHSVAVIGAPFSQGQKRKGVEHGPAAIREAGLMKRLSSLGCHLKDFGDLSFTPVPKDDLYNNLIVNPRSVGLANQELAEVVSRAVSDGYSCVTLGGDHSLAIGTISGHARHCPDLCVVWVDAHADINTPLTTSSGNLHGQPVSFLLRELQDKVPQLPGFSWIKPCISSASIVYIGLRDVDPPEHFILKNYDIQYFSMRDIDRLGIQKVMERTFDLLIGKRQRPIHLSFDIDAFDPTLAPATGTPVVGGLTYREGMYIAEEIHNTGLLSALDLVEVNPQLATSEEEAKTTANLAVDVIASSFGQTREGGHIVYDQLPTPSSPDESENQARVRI

B1: Fab C0021177 (Fab, V domains shown)
VH: EVQLLESGGGLVQPGGSLRLSCAASGFTFRYEVAAWVRQAPGKGLEWVSAISGPAPKGYYADSVKGRFTISRDNSKNTLYLQMNSLRAEDTAVYYCARLRADLGLYMDLWGRGTLVTVSS
VL: QSELTQPPTASAAPGQKVTISCSGSSSNIGNHYVSWYQQLPGTAPKLLIYDTTVLSSGIPDRFSGSKSGTSATLGITGLQTGDEADYYCGTWDELTSNLVFGGGTKLTVL
B2: Fab C0021139 (Fab, V domains shown)
VH: B1 VH with R30Q, E32D, V33Y, A34Q, A35V, P54S, A55G, P56G, K57S, G58T
VL: B1 VL with E3V, T9S, A10V, T52N, T53S, V54E, L55R, S56T
B3: Fab C0021133 (Fab, V domains shown)
VH: B1 VH with E32D, V33H, A34H, A35V, P54S, A55G, P56G, K57S, G58T
VL: B1 VL with E3V, T9S, A10V, I20V
B4: Fab C0021158 (Fab, V domains shown)
VH: B1 VH with A55I
VL: B1 VL with E3V, T9S, A10V, T52N, T53S, V54E, L55R, S56T, S57A, I59V
B5: Fab C0021128 (Fab, V domains shown)
VH: B1 VH with R30Q, A55I
VL: QSVLTQPPSVSAAPGQKVTISCSGSSSNIGNHYVSWYQQLPGTAPKLLIYDNAIESSGIPDRFSGSKSGTSATLGITGLQTGDGADYYCGTWDSNLSALVFGGGTKLTVL
B6: Fab C0021181 (Fab, V domains shown)
VH: EVQLLESGGGLVRPGGSLRLSCAASEFTFRYDYHVWVRQAPGKGLEWVSAISGSGGSTYYADSVKSRFTISRDNSKNTLYLQMNSLRAEDTAVYYCARLRADLGLYMDLWGRGTLVTVSS
VL: QSVLTQPPSVSAAPGQKVAVSCSGSSSNIGSHYVSWYQQLPGTAPKLLIYDNSERTSGIPDRFSGSKSGTSATLGITGLQTGDEADYYCGTWDELTSNLVFGGGTRLTVL

Positions count from the first letter of the chain named.

For one assay, the target named is T1, biotinylated recombinant human Arginase …. The assay can be described thus: BLI.
For B1, the Kd was 0.17 nM.

Regarding B2, the Kd turned out to be 4.4 nM.

In the case of B3, the Kd turned out to be 2.1 nM.

For B4, the Kd is 0.17 nM.

In the case of B5, the Kd was 2.5 nM.

For B6, the Kd amounted to 0.29 nM.

The next assay shares this target. As to the kind of experiment: BLI. The source holds these as a separate data set.
Take B1: the off-rate constant (koff) worked out at 3.5e-05 s⁻¹.

In the case of B2, the off-rate constant (koff) was 0.00087 s⁻¹.

For the molecule B3, the koff amounted to 0.00045 s⁻¹.

Take B4: the koff is 4.5e-05 s⁻¹.

Consider B5, for which the dissociation rate constant (koff) was found to be 0.00067 s⁻¹.

Consider B6, for which the koff was 4.2e-05 s⁻¹.
